Sequences and labels used below:
B1: AGE-2 aptamer 15 (ssDNA)
DNA: TACAGCCCCCCAACCCACCACCGCCGTAGATAACCACCCACCAACGATATCCCACT
B2: AGE-2 aptamer 13 (ssDNA)
DNA: CCTCAACACACCTCTAACCAACCCTCAGCCCAGCACAACACCCCCCAAACCGACAC
B3: AGE-2 aptamer 14 (ssDNA)
DNA: CTGAATACCAACGTACCCCCTCCCAAGTCCCCCTACCCACGCTAAACTCAACCTCA
B4: AGE-2 aptamer 6 (ssDNA)
DNA: CCCGCCATTCCCCTACATAACACCTACCCATCTCCCTTCCCAGTTAATCACCGC
B5: AGE-2 aptamer 7 (ssDNA)
DNA: CCACACTGCACTAAACCAGCGTCCCGGACCATCACAACCTCTGCCCACTAGCCCCT
B6: AGE-2 aptamer 3 (ssDNA)
DNA: CGCCCCCACACCACCGCCACGACCCCACAATCCCCCGAGGTCCCCCGCGTCCACAC
B7: AGE-2 aptamer 5 (ssDNA)
DNA: CAAGCGCTCCATCCACCGACATACCTACCAAACACTCTCCTTGCCCATAAAACCAC
B8: AGE-2 aptamer 10 (ssDNA)
DNA: ATAACCCCGACGTACACGCCAACTATGCCCACAACCCGCCATAACCCACCACCTTC
B9: AGE-2 aptamer 9 (ssDNA)
DNA: TAACTCACTCCATACTCACTTGCTGATTCGCCAACAACACACCCTTAAACAGTCCC
B10: AGE-2 aptamer 2 (ssDNA)
DNA: ACCACTGCACGACCCCCACCAGTCCCACTCGCAGCGTCCATGGCCCCCACGCCCCA
B11: AGE-2 aptamer 11 (ssDNA)
DNA: CCCAAGCACAATAGCCACACCCACGACCCACCCTCATATTCCGACCACGCTCCC
B12: AGE-2 aptamer 4 (ssDNA)
DNA: CCAGCCTCGATACCATACCCACCAACCCAACCAGACTCCACACACCCACGCGTCTC
B13: AGE-2 aptamer 8 (ssDNA)
DNA: AACTAGCCCGAGCCACAATCCCATAACAAGCGTGACCACACTATCCTGTCTTCCC

AGE-2 (glyceraldehyde-derived advanced glycation end product of human serum albumin), sequence (P02768 25-609, stated change not applied, one chain of several): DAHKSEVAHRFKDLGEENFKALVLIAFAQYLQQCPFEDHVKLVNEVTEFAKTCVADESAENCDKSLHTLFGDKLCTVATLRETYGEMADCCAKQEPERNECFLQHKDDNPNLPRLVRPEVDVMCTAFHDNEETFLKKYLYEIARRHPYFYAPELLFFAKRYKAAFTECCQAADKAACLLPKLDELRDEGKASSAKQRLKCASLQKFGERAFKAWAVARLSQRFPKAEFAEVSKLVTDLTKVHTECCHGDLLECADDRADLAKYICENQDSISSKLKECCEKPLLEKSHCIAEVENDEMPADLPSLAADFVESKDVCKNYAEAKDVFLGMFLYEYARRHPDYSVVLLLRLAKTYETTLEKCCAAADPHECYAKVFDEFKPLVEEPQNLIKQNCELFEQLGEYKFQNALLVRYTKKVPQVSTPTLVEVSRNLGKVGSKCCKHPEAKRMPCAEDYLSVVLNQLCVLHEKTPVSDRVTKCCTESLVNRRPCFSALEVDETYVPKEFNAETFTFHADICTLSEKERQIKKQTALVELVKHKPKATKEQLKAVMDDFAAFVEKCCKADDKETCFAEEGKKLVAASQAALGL

This data set addresses AGE-2 (glyceraldehyde-derived advanced glycation end product of human serum albumin) (Homo sapiens, UniProt P02768 P02768:25-609, HSA glycated with D-glyceraldehyde at 37 C for 7 days, dialysed against PBS). Put plainly: AGE-2 fluorescence attenuation, 100 ug/mL AGE-2, 25 nM aptamer. The conditions noted are these: tags: HSA from Sigma; immobilised on SulfoLink beads for SELEX. The procedure: First, for measuring fluorescence properties of AGE-2, wavelengths of AGE-2 were determined for excitation and […] using a spectrofluorometer (FP-777: JASCO Corporation). […] Subsequently, the fluorescence intensity was measured with 25 to 100 μg/mL of AGE-2 at the excitation wavelength of 380 nm, and a calibration curve was prepared (FIG. 3A).
Then, to each aptamer (SEQ ID NOs: 1 to 15), 100 μg/mL of the AGE-2 was added at a final concentration of 25 to 100 nM, and the fluorescence intensity was measured (see FIGS. 3B and C). Based on attenuation in the fluorescence intensity of AGE-2 when the aptamer was added at 25 nM, the weight (ng) of the bound AGE-2 was calculated per mole (nmol) of the aptamer.
Turning to B1, the binding signal is 271 ng AGE-2 bound per nmol aptamer.

On to B2, for which the binding signal was 175 ng AGE-2 bound per nmol aptamer. To B3 belongs 158 ng AGE-2 bound per nmol aptamer; to B4, 202 ng AGE-2 bound per nmol aptamer; to B5, 146 ng AGE-2 bound per nmol aptamer. To B6 belongs 260 ng AGE-2 bound per nmol aptamer; to B7, 143 ng AGE-2 bound per nmol aptamer. The figure for B8 is 134 ng AGE-2 bound per nmol aptamer; for B9 it is 117 ng AGE-2 bound per nmol aptamer; for B10 it is 175 ng AGE-2 bound per nmol aptamer. In the case of B11, the binding signal is 137 ng AGE-2 bound per nmol aptamer. To B12 belongs 210 ng AGE-2 bound per nmol aptamer. To B13 belongs 175 ng AGE-2 bound per nmol aptamer.

(Values after patent publication US20090023672, “AGE-2 APTAMER” (KURUME UNIVERSITY, published 2009).)
